Source: US20240092922A1 (EUCURE BEIJING BIOPHARMA, published 2024)

Legend:
[1] = target: T1, monkey (Rhesus macaque) 4-1BB (r4-1BB) on transfected CHO cells (monkey (Rhesus macaque), UniProt Q07011 24-255 (human entry)); assay: flow cytometry on transfected CHO cells;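 further: antibodies tested at 1 µg/ml on CHO cells for 30 min at 4 °C, binding detected with FITC- or PE-labeled anti-mouse IgG Fc secondary by flow cytometry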
T1 construct: also called rm4-1BB; CHO-r4-1BB
T1 chain: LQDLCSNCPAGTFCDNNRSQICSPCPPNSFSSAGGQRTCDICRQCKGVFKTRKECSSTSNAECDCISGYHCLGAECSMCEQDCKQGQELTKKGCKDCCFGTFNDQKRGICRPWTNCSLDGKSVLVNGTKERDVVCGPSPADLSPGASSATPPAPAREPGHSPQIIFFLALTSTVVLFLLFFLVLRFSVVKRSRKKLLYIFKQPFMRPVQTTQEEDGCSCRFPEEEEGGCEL
Protocol: (§1) 25 μl CHO cells were added to each well. 25 μl purified anti-h4-1BB antibodies (1 μg/ml) were added to each well and were incubated at 4° C. for 30 minutes.
(§2) After being washed with PBS (1200 rmp, 5 min) twice, 50 μl of FITC labeled anti-mouse IgG Fc antibody (anti-mIgG Fc-FITC) was added into each well at 1:100 dilution, followed by incubating at 4° C. for 30 minutes, and then PBS wash (1200 rmp, 5 min). In some cases, PE labeled anti-mouse IgG Fc antibody (anti-mIgG Fc-PE) was used to label the antibody instead, and was added into each tested well at 1:500 dilution. The signals for FITC and PE were determined by flow cytometry.

[2] = target: T2, chimeric (mouse and human) 4-1BB (c4-1BB) on transfected CHO cells (chimeric (mouse and human)); assay: flow cytometry on transfected CHO cells;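 further: antibodies tested at 1 µg/ml on CHO cells for 30 min at 4 °C, binding detected with FITC- or PE-labeled anti-mouse IgG Fc secondary by flow cytometry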
T2 construct: also called chi4-1BB; CHO-c4-1BB
Protocol: as §1, §2

[3] = target: T3, mouse 4-1BB (m4-1BB) on transfected CHO cells (mouse, UniProt P20334 24-256); assay: flow cytometry on CHO cells transfected with mouse 4-1BB
T3 construct: also called CHO-m4-1BB
Protocol: as §1, §2

[4] = target: T4, human 4-1BB (h4-1BB) on transiently transfected CHO cells (human, UniProt Q07011 24-255); assay: flow cytometry, CHO cells transfected with human 4-1BB, antibody at 1 µg/ml
T4 construct: also called TNFRSF9; CD137
Protocol: (§3) 25 μl CHO cells transiently transfected with human 4-1BB were added to each well in a plate. The purified antibodies were titrated to final concentrations of 10, 1, 0.1, 0.01, 0.001 μg/ml. The titrated antibodies were added to each well at 4° C. and incubated for 30 minutes.
(§4) After being washed with phosphate-buffered saline (PBS) (1200 rpm, 5 minutes) twice, 50 μl of FITC labeled anti-mouse IgG Fc antibody (anti-mIgG Fc-FITC) at 1:100 dilution was added into each well, and incubated for 30 minutes at 4° C., followed by PBS wash (1200 rpm, 5 minutes). The signal for FITC was detected by flow cytometry.

[5] = target: T4, human 4-1BB (h4-1BB) on transiently …; assay: flow cytometry, CHO cells transfected with human 4-1BB, antibody at 10 µg/ml
Protocol: as §3, §4

[6] = target: T4, human 4-1BB (h4-1BB) on transiently …; assay: flow cytometry, CHO cells transfected with human 4-1BB, antibody at 0.1 µg/ml
Protocol: as §3, §4

[7] = target: T4, human 4-1BB (h4-1BB) on transiently …; assay: flow cytometry, CHO cells transfected with human 4-1BB, antibody at 0.01 µg/ml
Protocol: as §3, §4

[8] = target: T4, human 4-1BB (h4-1BB) on transiently …; assay: flow cytometry, CHO cells transfected with human 4-1BB, antibody at 0.001 µg/ml
Protocol: as §3, §4

[9] = target: T3, mouse 4-1BB (m4-1BB) on transfected CHO …; assay: flow cytometry on CHO-m4-1BB cells, anti-mouse-IgG-Fc-FITC (1:100)
Protocol: as §1, §2

B1: 70-3F9 (antibody, V domains shown)
VH: QVQLQQPGAELVRPGASVKLSCKASGYTFTSYWINWVKQRPGQGLEWIGNIFPSDSYTNYNQKFKDRAKLTVDKSSSTAYMQLSSPTSEDSAVYYCTRFGSSGYPDYYTMEYWGQGTSVTVSS
VL: DIQMTQSPASLSASVGETVTITCRASGNIDNYLAWYQQKQGKSPQLLVYNAKTLAEGVPSRFSGSGSGTEYSLKINSLQPEDFGSYHCQQYWTIPYTFGGGTKLEIK
notes: mouse antibody purified from ascites
- binding result [1]: binds
- binding result [2]: binds
- binding result [3]: no binding (tested: 1 µg/ml)
- percentage of cells with FITC signal [4]: 56.4%
- percentage of cells with FITC signal [5]: 56.7%
- percentage of cells with FITC signal [6]: 9.06%
- percentage of cells with FITC signal [7]: 3.37%
- percentage of cells with FITC signal [8]: 1.25%

B2: 45-7G9 (antibody, V domains shown)
VH: QVQLQQPGSALVRPGASVKLSCKASGYTFSNYWIHWVKQRHGQGLEWIGNIYPASDYTNYDEKFKNKGTLTVDTSSSTAYMHLSSLTSEDSAVYYCSRGYFGSLDYWGQGTSVTVSA
VL: DILLTQSPAILSVNPGERVSFSCRASQPIGTGIHWYQQRTNGSPRLLIKSASESISGIPSRFSGSGSGTDFTLTINNVESDDVGDYYCQQSYSWPTTFGGGTKLKIN
notes: as for B1
- binding result [1]: binds
- binding result [2]: binds
- binding result [3]: no binding (tested: 1 µg/ml)
- percentage of cells with FITC signal [4]: 55.1%
- percentage of cells with FITC signal [5]: 57.9%
- percentage of cells with FITC signal [6]: 25.9%
- percentage of cells with FITC signal [7]: 0.96%
- percentage of cells with FITC signal [8]: 1%

B3: 55-8F6 (antibody, V domains shown)
VH: QVQLQQPGAELVRPGASVKLSCKASGYIFTSYWINWVKQRPGQGLEWIGNIYPSDSYTNYNQKFKDKATLTVDKSSSTAYMQLSSPTSEDSAVYYCTRFHYGSSPFDNWGQGTTLTVSS
VL: DIQMTQSTSSLSASLGDRVTISCRASQDISHYLNWYQQKPDGTVKLLIYYTSRLHSGVPSRFSGSGSGTDYSLTISNLEQEDFATYFCQQGHTLPRTFGGGTKLEIK
notes: as for B1
- binding result [1]: binds
- binding result [2]: binds
- binding result [3]: no binding (tested: 1 µg/ml)
- percentage of cells with FITC signal [4]: 52.3%
- percentage of cells with FITC signal [5]: 53.6%
- percentage of cells with FITC signal [6]: 36.1%
- percentage of cells with FITC signal [7]: 0.571%
- percentage of cells with FITC signal [8]: 0.375%

B4: 70-6F10 (antibody, V domains shown)
VH: QVQLQQSGPELVKPGASVKISCKASGYAFNNSWMNWVKQRPGQGLEWIGRIYPGDGDTDYNGKFKGKATLTADKSSSTAYMQLSSLTSVDSAVYFCARLDGNYYYWYFDVWGAGTTVTVSS
VL: not shown
notes: as for B1
- binding result [1]: binds
- binding result [2]: binds
- binding result [3]: no binding (tested: 1 µg/ml)
- percentage of cells with FITC signal [4]: 23.7%
- percentage of cells with FITC signal [5]: 52.9%
- percentage of cells with FITC signal [6]: 1.14%
- percentage of cells with FITC signal [7]: 0.913%
- percentage of cells with FITC signal [8]: 0.962%

B5: 45-8E2 (antibody, V domains shown)
VH: EVKLLESGGGLVQPGGSLKLSCAASGFDFSRYWMSWVRQAPGKGLEWIGEIHPDSSAINYTPSLKDKFIISRDNAKNTLYLQMSKVRSEDTALYYCARSYYGRVFDYWGQGTTLTVSS
VL: DIVMTQSPATLSVTPGDRVSLSCRASQSISDYLHWYQQKSHESPRLLIKYASQSISGIPPRFSGSGSGSDFTLSINSVEPEDVGMYYCQDGHSFPPTFGAGTKLELK
notes: as for B1
- binding result [1]: binds
- binding result [2]: binds
- binding result [3]: no binding (tested: 1 µg/ml)
- percentage of cells with FITC signal [4]: 60.1%
- percentage of cells with FITC signal [5]: 58.9%
- percentage of cells with FITC signal [6]: 49.8%
- percentage of cells with FITC signal [7]: 9.06%
- percentage of cells with FITC signal [8]: 1.52%

B6: 61-6A7 (antibody, V domains shown)
VH: EVQLQQSGAELVRPGALVKLSCKASGFNIKDYYMHWVKRRPEQGLEWIGWIDPENGNTIYDPKFQDKASITADTSSNTAYLQLSSLTSEDTAVYYCAEGLPWYFDYWGQGTTLTVSS
VL: QIILTQSPALMSASPGEKVTMTCSASSSVSDMNWYQQKPRSSPTPWIYLTSNLSSGVPDRFSGSGSGTSYSLTISSMEAEDAATYYCQQWSGNPLTFGAGTRLELK
notes: as for B1
- binding result [1]: binds
- binding result [2]: binds
- binding result [3]: no binding (tested: 1 µg/ml)
- percentage of cells with FITC signal [4]: 60.1%
- percentage of cells with FITC signal [5]: 63%
- percentage of cells with FITC signal [6]: 51.1%
- percentage of cells with FITC signal [7]: 17%
- percentage of cells with FITC signal [8]: 3.43%

B7: 69-3C2 (antibody, V domains shown)
VH: DVQLVESGGGLVQPGGSRKLSCAASGFSFSSFGMHWMRQAPEKGLEWVAYISSGSSAIYYADTVKGRFTISRDNPKNTLFLQMTSLRSEDTAMYYCARDWVDYWGQGTTLTVSS
VL: DIQMTQSPASLSVSVGETVTITCRASENIYSNLVWYQQKQGKSPQLLVYTATKLTNGVPSRFSGSGSGTQYSLKINSLQSEDFGTYYCQHFWDTPYTFGGGTKLEMK
notes: as for B1
- binding result [1]: binds
- binding result [2]: binds
- binding result [3]: no binding (tested: 1 µg/ml)
- percentage of cells with FITC signal [4]: 62.9%
- percentage of cells with FITC signal [5]: 58.5%
- percentage of cells with FITC signal [6]: 52.3%
- percentage of cells with FITC signal [7]: 26.2%
- percentage of cells with FITC signal [8]: 0.183%

B8: 45-7E9 (antibody, V domains shown)
VH: QVQLKQSGPGLVQPSQSLSITCTVSGFSLTTYGVHWVRQPPGKGLEWLGVIWSDGNTDYNDAFISRLSITKDNSTSQVFFKMNGLQADDTAIYYCARNSITSVSFDCWGQGTTLTVSS
VL: DIVMTQSQKFMSTSVGDRVSVTCKASQNVGTTVAWYQQRPGQSPKALICSASYRYSGVPDRFTGSGSGTDFTLTISNVQSEDLAEYFCQQYNSYPLTFGSGTKLEIK
notes: as for B1
- binding result [1]: binds
- binding result [2]: binds
- binding result [3]: no binding (tested: 1 µg/ml)
- percentage of cells with FITC signal [4]: 58.4%
- percentage of cells with FITC signal [5]: 57.6%
- percentage of cells with FITC signal [6]: 50%
- percentage of cells with FITC signal [7]: 12.7%
- percentage of cells with FITC signal [8]: 0.703%

B9: 30-5F9 (antibody, V domains shown)
VH: QVQLKESGPGLVAPSQSLSITCTVSGFSLTTYDISWVRQPPGKGLEWLGVIWTGGGTNYNSSFMSRLSISKDNSKNQVFLKMNSLQVDDTAIYYCERVDYWGQGTTLTVSS
VL: DVVMTQTPLSLPVSLGDQASISCRSSQSLVHSNGNTYLHWYLQKPGQSPKLLIYKVSNRFSGVPDRFSGSGSGTAFTFKISRVEAEDLGVYFCSQNTHVPWTFGGGTKLEIK
notes: as for B1
- binding result [9]: no binding (tested: 1 µg/ml)
- percentage of cells with FITC signal [4]: 56.2%
- percentage of cells with FITC signal [5]: 68.9%
- percentage of cells with FITC signal [6]: 25.3%
- percentage of cells with FITC signal [7]: 0.72%
- percentage of cells with FITC signal [8]: 0.802%

B10: 54-8B11 (antibody, V domains shown)
VH: QIQLVQSGPELKKPGETVKISCKASKFTFTNYGMNWVKQAPGKALKWMGWINTYTGEPTYADDFKGRFDFSLETSATTAYLQINNLKNEDTATYFCARREYYPWVFVYWGQGTLVTVSA
VL: ENVLTQSPAIMSASPGEKVTMTCSASSSVSYMHWYQQKSSTSPKLWIYDTSKLASGVPGRFSGSGSGNSYSLTISSMEAEDVATYYCFQGSGYPLTFGGGTKLEIK
notes: as for B1
- binding result [1]: binds
- binding result [2]: binds
- binding result [3]: no binding (tested: 1 µg/ml)
- percentage of cells with FITC signal [4]: 45%
- percentage of cells with FITC signal [5]: 49.8%
- percentage of cells with FITC signal [6]: 16.5%
- percentage of cells with FITC signal [7]: 0.445%
- percentage of cells with FITC signal [8]: 0.111%
